Measured values published in the supplement of paper PMC9732359.
± gives the uncertainty stated by the source.

Test: protein stability index of a GFP-peptide fusion (yeast GPS) (PSI 1-4); higher = more stable; sorted into four equal gates, so the index is relative within each strain
Outline: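 The protein stability index combines read frequencies across sorting gates, each weighted by its gate number and then summed. To obtain those frequencies, a pooled yeast library of GFP fusions to tiled 17-residue yeast protein peptides, on a plasmid also expressing Cherry, was grown to mid-log phase in leucine-free medium. The cells were sorted into four equal gates by GFP/Cherry ratio before plasmid amplification by PCR and Illumina sequencing.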

Sequence | protein stability index (doa10∆) | protein stability index (pdr5∆) | protein stability index (san1∆) | protein stability index (ubr1∆)
KVAPAPFGAKSTKSNKT [RPL8A] | 2.68 ± 0.1 | 2.84 ± 0.076 | 2.74 ± 0.071 | 2.94 ± 0.068
KVDGKVRTDTTYPAGFM [RPS4A] | 3.41 ± 0.13 | 3.18 ± 0.13 | 2.97 ± 0.073 | 3.15 ± 0.11
KVEIPLPNEAGRLEIFK [RPT4] |  | 3.09 ± 0.17 | 2.52 ± 0.18 | 2.74 ± 0.21
KVEKGVNIEPFNIDDEI [LIN1] | 3.52 ± 0.14 | 3 ± 0.21 | 3.45 ± 0.14 | 3.49 ± 0.076
KVIKVLGRTGSRGGVTQ [RPS28A] | 3.02 ± 0.073 | 3.04 ± 0.058 | 2.73 ± 0.085 | 3.12 ± 0.083
KVPDISSDGQLKKFRES [BRR2] | 3.36 ± 0.13 | 3.49 ± 0.14 | 3.39 ± 0.07 | 3.54 ± 0.065
KVSKNSTSFKNPRRLEI [YMR153W/NUP53] | 2.85 ± 0.059 | 2.87 ± 0.057 | 2.88 ± 0.057 | 2.71 ± 0.032
KVSYAVKKPQKSKTSTG [SNM1] | 2.85 ± 0.1 | 3.15 ± 0.13 | 2.66 ± 0.12 | 3.24 ± 0.079
KYLYLRAVGGEVGASAA [RPL12A] | 1.66 ± 0.18 | 1.99 ± 0.13 | 1.64 ± 0.13 | 2.11 ± 0.1
KYRKRQLVTREAQIKDW [FAS2] | 2.81 ± 0.27 | 2.86 ± 0.15 | 2.93 ± 0.24 | 3.22 ± 0.11
KYSDILLKKATKPEVAS [CDC53] | 2.32 ± 0.097 | 2.23 ± 0.12 | 2.47 ± 0.15 | 2.47 ± 0.17
LADILKANISLETLEHN [RPO21] | 2.96 ± 0.093 | 2.91 ± 0.1 | 3.11 ± 0.11 | 2.61 ± 0.11
LADKLENYEGKQDKTLQ [YIL149C/MLP2] | 3.15 ± 0.18 | 3.22 ± 0.22 | 2.92 ± 0.15 | 3.17 ± 0.22
LAKSKASLTAARTAANS [RPN6] | 2.5 ± 0.18 | 2.69 ± 0.12 | 2.83 ± 0.097 | 2.7 ± 0.051
LAKTKENYDAKIELEKK [YIL149C/MLP2] | 3.22 ± 0.058 | 3.47 ± 0.075 | 3.05 ± 0.061 | 3.13 ± 0.053
LANFVAKGFYHTPMVNF [SRB8] | 2.57 ± 0.059 | 2.27 ± 0.044 | 1.92 ± 0.082 | 2.32 ± 0.048
LAPTQLSAEYLVILKPD [SIN4] | 2.31 ± 0.11 | 2.74 ± 0.13 | 2.38 ± 0.12 | 2.38 ± 0.074
LAQLTSKLIPEVINKEI [RPS1A] | 2.82 ± 0.1 | 3.28 ± 0.1 | 2.92 ± 0.073 | 2.71 ± 0.07
LARGLRESTKALTRGEA [RPS12] | 3.28 ± 0.14 | 3.65 ± 0.12 | 2.94 ± 0.24 | 3.37 ± 0.044
LARQVKLLLLNTSAIQE [YIL149C/MLP2] | 2.19 ± 0.085 | 1.75 ± 0.073 | 1.56 ± 0.12 | 1.65 ± 0.038
LASFEKTTDHLFDAAFY [RPO31] | 2.9 ± 0.058 | 2.79 ± 0.046 | 2.96 ± 0.05 | 3 ± 0.043
LATGPNLTSEIEDLRAD [YOR098C/NUP1] | 3.42 ± 0.11 | 3.25 ± 0.11 | 3.12 ± 0.06 | 3.25 ± 0.082
LATPVQFELLSRRWRQR [BRR2] | 1.79 ± 0.072 | 1.87 ± 0.054 | 1.81 ± 0.072 | 2.17 ± 0.051
LATRRVLQEYRLTKQAF [RPO21] | 2.99 ± 0.082 | 3.1 ± 0.1 | 3.01 ± 0.065 | 3.17 ± 0.056
LCKSATTKMWPTNCPLR [BRR2] | 2.82 ± 0.13 | 2.68 ± 0.12 | 2.58 ± 0.081 | 2.75 ± 0.094
LCQINKCSTRGLSTDHT [YML103C/NUP188] |  | 2.47 ± 0.23 |  | 3.13 ± 0.18

Sequence | protein stability index (doa10∆) | protein stability index (pdr5∆) | protein stability index (san1∆) | protein stability index (ubr1∆)
LDDNSTSLEKQINSIKK [YJL041W/NSP1] | 2.74 ± 0.078 | 3.01 ± 0.058 | 2.98 ± 0.038 | 2.95 ± 0.045
LDEIFSGCDSTKPSLRK [ECM29] | 2.57 ± 0.078 | 2.55 ± 0.06 | 2.65 ± 0.065 | 2.65 ± 0.038
LDELQWKSPEWIQVFGL [MED6] | 2.24 ± 0.078 | 2.41 ± 0.053 | 2.62 ± 0.071 | 2.56 ± 0.066
LDEMELHPYNSRGLFEK [YDL116W/NUP84] | 3.23 ± 0.094 | 3.04 ± 0.1 | 2.86 ± 0.076 | 3.22 ± 0.063
LDENKWYKFNDDKVSVV [UBP6] | 2.87 ± 0.12 | 3.06 ± 0.091 | 3.06 ± 0.1 | 2.97 ± 0.081
LDEVDAALDLSHTQNIG [SMC2] | 3.07 ± 0.17 | 3.21 ± 0.1 | 3.02 ± 0.11 | 3.12 ± 0.067
LDGKFSLFHTAVSVANG [RPN2] | 2.09 ± 0.056 | 2.03 ± 0.057 | 2.45 ± 0.077 | 2.37 ± 0.06
LDKFTDGGLFTLFVRDQ [QCR2] | 2.98 ± 0.093 | 3.14 ± 0.07 | 3.19 ± 0.055 | 3.31 ± 0.054
LDKVINKELPINHTILG [RPN8] | 2.19 ± 0.077 | 2.27 ± 0.08 | 1.67 ± 0.13 | 2.4 ± 0.055
LDPINLPLDSQDDEYVK [PRP8] | 2.83 ± 0.075 | 3.01 ± 0.066 | 3.14 ± 0.093 | 3.05 ± 0.045
LDPISLILIPGETMWVP [RPN13] | 2.28 ± 0.095 | 2.45 ± 0.049 | 2.95 ± 0.093 | 3.4 ± 0.12
LDTYLPEDLNSLYIYYL [SIR2] | 2.8 ± 0.068 | 2.45 ± 0.054 | 2.54 ± 0.053 | 2.63 ± 0.063
LEANGRSLEKVNNSVSK [SSN2] | 3.48 ± 0.15 | 3.47 ± 0.12 | 3.18 ± 0.11 | 3.37 ± 0.1
LEASLNSITKDNIDYAP [YJL039C/NUP192] | 2.7 ± 0.05 | 2.43 ± 0.041 | 2.47 ± 0.039 | 2.27 ± 0.026
LEATWNFIEPGINQILG [CDC53] | 2.95 ± 0.29 | 2.75 ± 0.27 | 3.38 ± 0.1 | 3.08 ± 0.12
LEDIYTSAHEAIRADPA [RPL5] | 3.04 ± 0.066 | 2.98 ± 0.082 | 3.13 ± 0.072 | 3.19 ± 0.051
LEDLVFPTEIVGKRVRY [RPS7A] |  | 3.52 ± 0.28 |  | 3.71 ± 0.25
LEEKKKRPNNKTLEKLE [IRR1] | 3.55 ± 0.14 | 3.43 ± 0.1 | 3.39 ± 0.092 | 3.27 ± 0.13
LEESDVEDTLHVNKRKR [YOR098C/NUP1] | 3.26 ± 0.095 | 2.89 ± 0.095 | 3.12 ± 0.074 | 2.91 ± 0.062
LEEVSLKWIDTASKFGK [RPL3] | 1.75 ± 0.097 | 1.91 ± 0.092 | 1.8 ± 0.12 | 1.95 ± 0.089
LEFARITPMNDDQCMLI [SIN4] | 2.63 ± 0.074 | 2.82 ± 0.089 | 2.25 ± 0.051 | 3.31 ± 0.067
LEHVLLVPTASFFIASQ [FAS1] | 1.25 ± 0.033 | 1.46 ± 0.038 | 1.45 ± 0.064 | 1.31 ± 0.027
LEKFLQGRDTSKLPDPE [SRP72] | 2.76 ± 0.11 | 2.2 ± 0.06 | 2.38 ± 0.11 | 2.77 ± 0.051
LENATWTMRIEGRLLDN [SNF12] | 2.64 ± 0.099 | 2.89 ± 0.12 | 2.65 ± 0.1 | 2.92 ± 0.066
LENKADPLVSLMMVEKV [RPT6] | 2.12 ± 0.095 | 2 ± 0.069 | 2.35 ± 0.067 | 2.2 ± 0.099
LEPGCSVLLHHKTMSIV [RPT2] | 1.39 ± 0.067 | 1.58 ± 0.049 | 1.38 ± 0.087 | 1.61 ± 0.04
